Measurements as given in patent US12065466B2, “Methods and compositions for protein sequencing” (Quantum-Si Incorporated, priority 2020, dated 2024).
Read-outs that look alike come from different tables or passages of the source.

Assays:
[1] = molecular target: T1, fluorescently-labeled peptide containing N-terminal phospho-tyrosine (Homo sapiens, UniProt P06241, C239S/C240S/C246S/K204L/S186A/T181V); assay: Single-molecule recognition of modified amino acids by immobilized Fyn SH2 variant; format: binding
T1 construct: Src Homology 2 (SH2) domain from Fyn
Protocol: Experiments were performed to evaluate recognition of amino acids containing specific post-translation modifications. […] The variant protein was immobilized to the bottom of sample wells, and single-molecule signal traces were collected upon addition of a fluorescently-labeled peptide containing N-terminal phospho-tyrosine. […] Pulse duration data collected during these experiments is shown in FIG. 22B (top, middle, and bottom plots corresponding to the top, middle, and bottom traces of FIG. 22A, respectively). Pulse duration and interpulse duration statistics are shown in FIG. 22C (top and bottom panels, respectively). Control experiments were performed to confirm that the Fyn protein was specific for the phosphorylated tyrosine. The experiments were repeated for each of three different peptides: a first peptide containing N-terminal unmodified tyrosine (Y; FIG. 22D), a second peptide containing N-terminal and penultimate unmodified tyrosines (YY; FIG. 22E), and a third peptide containing N-terminal phospho-serine (FIG. 22F).

[2] = test system: amino acid at a terminal position of a polypeptide; settings: Table 2; amino acid identity at a terminal position (phosphotyrosine also internal); inferred from literature and/or demonstrated by the inventors; cited from earlier work
[3] = test system: labeled N-terminal FA peptide; assay: Stopped-flow dissociation rate (koff), atClpS2-V1 derivatives; format: binding; settings: excess unlabeled trap peptide
Excerpt: To measure the dissociation rate (koff) by stopped-flow, complexes of binder bound to labeled peptide substrate at an optimal concentration were rapidly mixed with excess unlabeled trap peptide. […] The averaged raw traces were fitted with an exponential equation to determine the koff (FIG. 37B, bottom panel).

[4] = test system: N-terminal amino acids of peptides; assay: Single-molecule terminal amino acid recognition by labeled recognition molecule (dwell time analysis); format: binding
Protocol: An adaptor protein involved in proteolytic pathways was identified as a potential candidate for use as a labeled recognition molecule for detecting N-terminal aromatic residues. The adaptor protein, ClpS2 from an α-proteobacterium (A. tumefaciens), was expressed and labeled at an exposed cysteine residue. […] The exposed cysteine residue was labeled with a rhodamine dye (ATTO 532).
Peptides having different N-terminal aromatic residues were prepared to test whether the labeled ClpS2 was capable of N-terminal amino acid discrimination at the single molecule level.
FIG. 19C is a plot showing discriminant pulse durations (time duration of signal peaks) among the three N-terminal residues when reversibly bound by labeled ClpS2. FIG. 19D is a plot showing discriminant interpulse durations (time duration between signal pulses) among the three N-terminal residues. […] Mean pulse duration for the different N-terminal residues is visualized by histograms (A)-(B) and layered histogram (C).

[5] = test system: immobilized peptide containing N-terminal phenylalanine (FYPLPWPDDDY (SEQ ID NO: 235)); assay: Simultaneous single-molecule recognition with differentially labeled recognition molecules; format: binding; settings: 500 nM each binder
Protocol: Single peptide molecules containing N-terminal phenylalanine ([…] (SEQ ID NO: 235)) were immobilized in sample wells of a chip. Buffer containing 500 nM each of atClpS1 (Agrobacterium tumifaciens ClpS1; sequence provided in Table 1) and atClpS2-V1 (Agrobacterium tumifaciens ClpS2 variant 1; sequence provided in Table 1) was added, where atClpS1 and atClpS2-V1 were labeled with Cy3 and Cy3B, respectively. Since the intensity of Cy3B is higher than Cy3, atClpS2-V1 binding events were readily distinguishable from atClpS1 binding events.
The pulse duration distributions were distinct for each binder (FIG. 24B) and corresponded to their kinetic profiles as observed in single-binder experiments. Mean pulse duration was 1.3 seconds for atClpS1 and 1.0 seconds for atClpS2-V1 (FIG. 24C). Pulse rate was also distinct: 8.1 pulses/min for atClpS1 and 14.1 pulses/min for atClp2-V1 (FIG. 24C).

[6] = test system: amino acid at a terminal position of a polypeptide; assay: Amino acid binding preference of recognition proteins (Tables 1 and 2); settings: Table 1, ClpS proteins; amino acid identity at a terminal position of a polypeptide; inferred from literature and/or demonstrated by the inventors
Excerpt: It should be appreciated that these sequences and other examples described herein are meant to be non-limiting, and recognition molecules in accordance with the application can include any homologs, variants thereof, or fragments thereof minimally containing domains or subdomains responsible for peptide recognition.

[7] = test system: LF, LA, IR, IA, VR, and VA peptides; assay: Binder-on-chip single-molecule assay (PS372); format: binding
Protocol: Binder-on-chip experiments were performed for PS372 with LF, LA, IR, IA, VR, and VA peptides to evaluate recognition by signal pulse detection in single-molecule assays. […] For comparison, the mean pulse width observed with the L-binder teClpS was 768 ms (˜37% shorter than PS372).

[8] = test system: FITC-labeled peptide (XAKLDEESILKQK-FITC (SEQ ID NO: 238)); assay: Fluorescence polarization of ClpS:streptavidin complexes; format: binding; settings: 30 minute incubation at 23° C.
Protocol: ClpS homologs were evaluated by fluorescence polarization to measure the interaction of a FITC-labeled peptide (XAKLDEESILKQK-FITC (SEQ ID NO: 238)) with ClpS:streptavidin complexes. Measurements of polarization response (millipolarization, mP) and total intensity for I, V, L, F, Y, and W were performed in a high-throughput 384-well plate format, using 480 nm excitation and 530 nm emission wavelength with readings collected after 30 minute incubation at 23° C. The results with in-solution binding validated that PS372 binds with leucine, isoleucine, and valine with strength of response in the order LA>IA>VA (FIG. 29E). Binding responses of atClpS2-V1 were FA>YA>WA, and those of teClpS were LA>FA>YA>WA.

[9] = test system: immobilized peptides containing an N-terminal amino acid of interest (XAKLDEESILKQK; XXKLDEESILKQK); assay: Biolayer interferometry screening of ClpS homologs; format: binding; settings: for binding to isoleucine peptides, effect of penultimate amino acid: IR, IQ, IA peptides; for binding to valine peptides, effect of penultimate amino acid: VA, VR peptides
Protocol: The amino acid binding profile of each new homolog was evaluated by biolayer interferometry. ClpS proteins with known binding profiles (atClpS2-V1, atClpS1, and teClpS) were included as controls. In these assays, peptides containing an N-terminal amino acid of interest were immobilized on a biolayer interferometry sensor surface, allowed to bind to ClpS protein, and incubated in buffer to allow the ClpS molecules to dissociate. The binding response (nm) and dissociation off-rate (kdis, s^−1) were measured using a kinetic model. Measurements with each ClpS protein were carried out at 30° C. for the amino acids I, V, M, F. Y, and W, along with D, E, A, and R as negative controls. All peptides contained a penultimate alanine (A) and consisted of the sequence XAKLDEESILKQK (SEQ ID NO: 238).
Results from the biolayer interferometry screening of 61 ClpS homologs (58 new homologs, 3 reference homologs) are shown in FIG. 29B. Response (y-axis) is plotted against the inverse of dissociation rate for eight different dipeptides (data not shown for negative controls DA, AA, and RA). In these plots, higher values on the y-axis correspond to stronger association response and higher values on the x-axis indicate slower dissociation rates.
The effect of penultimate amino acids on isoleucine and valine binding by PS372 were evaluated by measuring binding to peptides with N-terminal IR, IQ, and VR by biolayer interferometry (peptide sequence: XXKLDEESILKQK (SEQ ID NO: 291)). Measurements were also obtained with teClpS for comparison.

[10] = test system: peptides with different N-terminal amino acids, penultimate alanine; assay: Biolayer interferometry of multivalent amino acid binders; format: binding
Protocol: The amino acid binding profile of each Bis-atClpS2-V1 binder (PS609, PS610, and PS611) was evaluated by biolayer interferometry as described above. The monovalent atClpS2-V1 was run as a control. Measurements with each binder were carried out for the amino acids F, Y, and W, along with I, L, M, and V as negative controls. All peptides contained a penultimate alanine (A). Response curves for the tandem binders PS609, PS610, and PS611 are shown in FIGS. 35B, 35C, and 35D, respectively.
The multivalent binder PS612 is a polypeptide that contains tandem copies of two different ClpS protein monomers (atClpS2-V1 and PS372). The amino acid binding profile of PS612 was evaluated by biolayer interferometry as described above. The monovalent binders atClpS2-V1 and PS372 were separately run as controls.
The multivalent binder PS614 is a polypeptide that contains two copies of the ClpS binder PS372 oriented in tandem. The amino acid binding profile of PS614 was evaluated by biolayer interferometry as described above.
The multivalent binders PS637, PS638, and PS639 are polypeptides that each contain two copies of the ClpS binder PS557 oriented in tandem and separated by Linker 1, Linker 2, and Linker 3, respectively. The amino acid binding profiles of each binder was evaluated by biolayer interferometry as described above.

[11] = test system: N-terminal isoleucine peptide and N-terminal leucine peptide; assay: Peptide-on-chip recognition assay with labeled PS372; format: binding

B1: H. sapiens Fyn SH2 domain triple mutant superbinder: SEQ ID NO: 117 (protein, listed as Homo sapiens)
chain: MGAMDSIQAEEWYFGKLGRKDAERQLLSFGNPRGTFLIRESETVKGAYALSIRDWDDMKGDHVKHYLIRKLDNGGYYITTRAQFETLQQLVQHYSERAAGLSSRLVVPSHK
[1]; negative controls: N-terminal unmodified tyrosine (Y), YY, N-terminal phospho-serine
  peptide binding (single-molecule signal traces): binding was not detected
[1]; peptide containing N-terminal phospho-tyrosine
  peptide binding (single-molecule signal traces): Peptide binding by the immobilized protein was detected
[2]
  Binding Pref.: phospho-Y

B2: PS705 (protein)
chain: MSDSPVDLKPKPKVKPKLERPKLYKVMLLNDDYTPMSFVTVVLKAVFRMSEDTGRRVMMTAHRFGSAVVVVCERDIAETKAKEATDLGKEAGFPLMFTTEPEEHHHHHHHHHHGGGSGGGSGGGSGLNDFFEAQKIEWHEGGGSGGGSGGGSGLNDFFEAQKIEWHEGSAGSAAGSGEFMDKDCEMKRTTLDSPLGKLELSGCEQGLHEIKLLGKGTSAADAVEVPAPAAVLGGPEPLMQATAWLNAYFHQPEAIEEFPVPALHHPVFQQESFTRQVLWKLLKVVKFGEVISYQQLAALAGNPAATAAVKTALSGNPVPILIPCHRVVSSSGAVGGYEGGLAVKEWLLAHEGHRLGKPGLG
[3]
  FA koff: 1.2655 s⁻¹

B3: atClpS1: Agrobacterium tumifaciens ClpS1, SEQ ID NO: 93 (protein, listed as Agrobacterium tumifaciens)
chain: MIAEPICMQGEGDGEDGGTNRGTSVITRVKPKTKRPNLYRVLLLNDDYTPMEFVIHILERFFQKDREAATRIMLHVHQHGVGECGVFTYEVAETKVSQVMDFARQHQHPLQCVMEKK
[4]
  recognition of terminal amino acids (dwell time analysis): differentiable recognition of phenylalanine, leucine, tryptophan, and tyrosine
[5]
  Pulse rate: 8.1 pulses/min
  mean pulse duration: 1.3 s
[6]
  Binding Pref.: F, W, Y, L

B4: teClpS: ClpS protein, SEQ ID NO: 107 (protein, listed as Thermosynechococcus elongatus)
chain: MPQERQQVTRKHYPNYKVIVLNDDFNTFQHVAACLMKYIPNMTSDRAWELTNQVHYEGQAIVWVGPQEQAELYHEQLLRAGLTMAPLEPE
[4]; terminal leucine residue
  mean pulse duration: 0.71 s
[7]; L-binder comparison, peptide not stated
  mean pulse width: 768 ms
[6]
  Binding Pref.: F, W, Y, L
[8]
  order of strength of polarization response: LA>FA>YA>WA
[9]
  binding to isoleucine peptides, effect of penultimate amino acid: minor response with very fast dissociation for IR peptide only
  binding to valine peptides, effect of penultimate amino acid: no response with V peptides

B5: PS372: ClpS homolog binding leucine, isoleucine and valine, SEQ ID NO: 5 (protein)
chain: MAFPARGKTAPKNEVRRQPPYNVILLNDDDHTYRYVIEMLQKIFGFPPEKGFQIAEEVDRTGRVILLTTSKEHAELKQDQVHSYGPDPYLGRPCSGSMTCVIEPAV
[7]; IA peptide
  mean pulse width: 70 ms
[7]; IR peptide
  mean pulse width: 83 ms
[7]; LA peptide
  mean pulse width: 876 ms
[7]; LF peptide
  mean pulse width: 1207 ms
[10]
  N-terminal amino acids bound (biolayer interferometry): binds N-terminal I, L, and V
[6]
  Binding Pref.: L, I, V
[8]
  order of strength of polarization response: LA>IA>VA
[9]; 30° C., penultimate alanine
  amino acids bound (biolayer interferometry): binder of leucine, isoleucine, and valine
  binding to the F, Y, or W peptides: did not show binding
[9]
  binding to isoleucine peptides, effect of penultimate amino acid: binds IQ and IA with higher affinity relative to IR
  binding to valine peptides, effect of penultimate amino acid: binds well with VA and has negligible response with VR

B6: dye-labeled PS372: PEGylated, biotinylated PS372 conjugated 1:1 with streptavidin and a biotinylated Cy3B-labeled oligonucleotide (conjugate)
chain: B5 chain
[11]; N-terminal isoleucine peptide (IAALAAVAADDDW (SEQ ID NO: 239))
  mean pulse width: 78 ms
[11]; N-terminal leucine peptide (LAAIAAFAADDDW (SEQ ID NO: 292))
  mean pulse width: 957 ms
